The record followed here is PMC4072508, “Genome-Wide Prediction and Validation of Peptides That Bind Human Prosurvival Bcl-2 Proteins” (PLoS Computational Biology, 2014).

What all share (assay): peptide SPOT array, c-Myc-tagged receptor at 1 uM or 100 nM, anti-c-Myc-Cy3
The target in one assay is Bcl-xL, Q07817.
The target of another assay is T1, Bfl-1, Q16548.
T1 chain: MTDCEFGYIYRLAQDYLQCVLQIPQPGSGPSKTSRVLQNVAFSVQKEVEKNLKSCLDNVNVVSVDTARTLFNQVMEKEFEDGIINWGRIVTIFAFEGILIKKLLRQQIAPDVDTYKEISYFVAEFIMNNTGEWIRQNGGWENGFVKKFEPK

A further assay deals with T2, Mcl-1, Q07820.
T2 chain: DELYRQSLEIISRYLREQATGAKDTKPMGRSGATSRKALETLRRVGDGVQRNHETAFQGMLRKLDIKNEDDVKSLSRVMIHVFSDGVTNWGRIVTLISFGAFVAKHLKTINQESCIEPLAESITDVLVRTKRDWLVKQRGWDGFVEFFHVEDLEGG

Bcl-xL, Q07817, sequence (Q07817 1-209): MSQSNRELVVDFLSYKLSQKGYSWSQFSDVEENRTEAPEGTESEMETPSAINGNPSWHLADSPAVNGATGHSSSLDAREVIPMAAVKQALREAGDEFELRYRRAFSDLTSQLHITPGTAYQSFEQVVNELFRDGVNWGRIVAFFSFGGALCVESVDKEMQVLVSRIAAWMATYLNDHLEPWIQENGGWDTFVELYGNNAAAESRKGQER

B1: CYBB (peptide)
chain: APEEDFFSIHIRIVGDWTEGLFNACG
Regarding B1, the SPOT signal as a fraction of Bim BH3's signal on the same receptor and array in the assay with Bcl-xL, Q07817 stood at 0.06; with Bfl-1, Q16548, 0.04; with Mcl-1, Q07820, 0.09.

B2: ATP2A3 (peptide)
chain: KGTAVAICRRLGIFLDTEDVAGKAYT
As for B2, the SPOT signal as a fraction of Bim BH3's signal on the same receptor and array with Bcl-xL, Q07817 came out at 0.16; with Bfl-1, Q16548, 0.09; with Mcl-1, Q07820, 0.16.

B3: FBXW5 (peptide)
chain: LTETSLISGNDHRIGDITSCSVLWLN
With B3, the SPOT signal as a fraction of Bim BH3's signal on the same receptor and array was 0.06 with Bcl-xL, Q07817; 0.04 with Bfl-1, Q16548; 0.03 in the assay with Mcl-1, Q07820.

B4: SYNE1 (peptide)
chain: VTLLSEVEKMLSNFGDCVQYKEIVKN
For the molecule B4, the SPOT signal as a fraction of Bim BH3's signal on the same receptor and array came to 0.11 with Bcl-xL, Q07817; 0.06 in the assay with Bfl-1, Q16548; 0.08 in the assay with Mcl-1, Q07820.

B5: MCF2L2 (peptide)
chain: ADAIRPRCVEDRHLCDDFINGNKKKW
With B5, the SPOT signal as a fraction of Bim BH3's signal on the same receptor and array amounted to 0.15 with Bcl-xL, Q07817; 0.07 with Bfl-1, Q16548; 0.06 with Mcl-1, Q07820.

B6: NBEAL2 (peptide)
chain: AELRLFLAQRDRWLCDSCPASRATCV
Regarding B6, the SPOT signal as a fraction of Bim BH3's signal on the same receptor and array turned out to be 0.34 with Bcl-xL, Q07817; 0.33 with Bfl-1, Q16548; 0.5 with Mcl-1, Q07820.

B7: CRB1 (peptide)
chain: TGSLCEIATTLSFEGDGFLWVKSGSV
As for B7, the SPOT signal as a fraction of Bim BH3's signal on the same receptor and array was found to be 0.06 with Bcl-xL, Q07817; 0.03 with Bfl-1, Q16548; 0.04 with Mcl-1, Q07820.

B8: TMEM184C (peptide)
chain: SDIRDDISEQVRHVGRTVRGHPRKKL
For the molecule B8, the SPOT signal as a fraction of Bim BH3's signal on the same receptor and array was determined as 0.92 in the assay with Bcl-xL, Q07817; 0.29 with Bfl-1, Q16548; 0.32 with Mcl-1, Q07820.

B9: MCF2L2 (peptide)
chain: ADAIRPRCVELRHLLDDFINGNKKKW
As for B9, the SPOT signal as a fraction of Bim BH3's signal on the same receptor and array in the assay with Bcl-xL, Q07817 was found to be 0.56; with Bfl-1, Q16548, 0.31; in the assay with Mcl-1, Q07820, 0.26.

B10: ITGA7 (peptide)
chain: GSPDSMFGISLAVLLDLNQDGFPDIA
B10: the SPOT signal as a fraction of Bim BH3's signal on the same receptor and array amounted to 0.07 with Bcl-xL, Q07817; 0.07 in the assay with Bfl-1, Q16548; 0.04 in the assay with Mcl-1, Q07820.

B11: EXOC4 (peptide)
chain: MQTLSELAKSDQDMADRCLLVLHLEV
Turning to B11, the SPOT signal as a fraction of Bim BH3's signal on the same receptor and array with Bcl-xL, Q07817 was found to be 0.05; with Bfl-1, Q16548, 0.04; in the assay with Mcl-1, Q07820, 0.04.

B12: RBL1 (peptide)
chain: WTLFVYTKGNFRMIGDDLVNSYHLLL
On to B12, for which the SPOT signal as a fraction of Bim BH3's signal on the same receptor and array with Bcl-xL, Q07817 worked out at 0.13; with Bfl-1, Q16548, 0.12; with Mcl-1, Q07820, 0.15.
